Reference: patent US20150023989A1, “NEW ANTIBODY DRUG CONJUGATES (ADCS) AND THE USE THEREOF” (SEATTLE GENETICS, INC., priority 2011, published 2015)

Target: FGFR2 on the cell surface of human tumour cell lines (human), P21802
Experiment: cell-based or functional assay

| Binder | MFM-223, IC50, 72 hr (growth inhibition) | SNU-16, IC50, 72 hr (growth inhibition) |
| --- | --- | --- |
| Example 16 (immunoconjugate of GAL-FR21-mIgG1, coupled to lysine side chains) (antibody, here or on the partner: auristatin linker-toxophore on side chain NH of lysine residues, positions not stated (drug/mAb ratio 8.7 for the antibody)) light: NIVMTQSPKSMSMSVGDRVSITCKASQGVSNDVAWYQKKPGQSPKLLIYSASYRYTGVPDRFTGSGSGTDFTFTISNVQAEDLAVYYCQQHSTTPYTFGGGTKLEIKRTDAAPTVSIFPPSSEQLTSGGASVVCFLNNFYPKDINVKWKIDGSERQNGVLNSWTDQDSKDSTYSMSSTLTLTKDEYERHNSYTCEATHKTSTSPIVKSFNRNEC heavy: QVQLQQPGAEVVKPGASVKMSCKASGYIFTTYNVHWVKQTPGQGLEWIGSIYPDNGDTSYNQNFKGKATLTADKSSSTAYIQLSSLTSEDSAVYYCARGDFAYWGQGTLVTVSSAKTTPPSVYPLAPGSAAQTNSMVTLGCLVKGYFPEPVTVTWNSGSLSSGVHTFPAVLQSDLYTLSSSVTVPSSTWPSETVTCNVAHPASSTKVDKKIVPRDCGCKPCICTVPEVSSVFIFPPKPKDVLTITLTPKVTCVVVDISKDDPEVQFSWFVDDVEVHTAQTQPREEQFNSTFRSVSELPIMHQDWLNGKEFKCRVNSAAFPAPIEKTISKTKGRPKAPQVYTIPPPKEQMAKDKVSLTCMITDFFPEDITVEWQWNGQPAENYKNTQPIMDTDGSYFVYSKLNVQKSNWEAGNTFTCSVLHEGLHNHHTEKSLSHSPGK | 78.8 pM | < 30 pM |
| Example 17 (immunoconjugate of GAL-FR22-mIgG2a, coupled to lysine side chains) (antibody, here or on the partner: auristatin linker-toxophore on side chain NH of lysine residues, positions not stated (drug/mAb ratio 8.1 for the antibody)) light: DIQMTQSPSSLSASLGGRVTITCKASQDIKNYIAWYQHKPGKSPRLLIHYTSTLQPGVPSRFSGSGSGRDYSFSISNLEPEDIATYYCLQYDDLYMFGGGTKLDIKRTDAAPTVSIFPPSSEQLTSGGASVVCFLNNFYPKDINVKWKIDGSERQNGVLNSWTDQDSKDSTYSMSSTLTLTKDEYERHNSYTCEATHKTSTSPIVKSFNRNEC heavy: QVQLKQSGPGLVQPSQSLSITCTVSGFSLTSFGVHWVRQSPGKGLEWLGVIWSGGSTDYNADFRSRLSISKDNSKSQIFFKMNSLQPDDTAIYYCANFYYGYDDYVMDYWGQGTSVTVSSAKTTAPSVYPLAPVCGDTTGSSVTLGCLVKGYFPEPVTLTWNSGSLSSGVHTFPAVLQSDLYTLSSSVTVTSSTWPSQSITCNVAHPASSTKVDKKIEPRGPTIKPCPPCKCPAPNLLGGPSVFIFPPKIKDVLMISLSPIVTCVVVDVSEDDPDVQISWFVNNVEVHTAQTQTHREDYNSTLRVVSALPIQHQDWMSGKEFKCKVNNKDLPAPIERTISKPKGSVRAPQVYVLPPPEEEMTKKQVTLTCMVTDFMPEDIYVEWTNNGKTELNYKNTEPVLDSDGSYFMYSKLRVEKKNWVERNSYSCSVVHEGLHNHHTTKSFSRTPGK | 278 pM | 61.6 pM |
